B1: Tyrosine-protein phosphatase non-receptor type 18 (Homo sapiens), Q99952-1 (parent)
chain: MSRSLDSARSFLERLEARGGREGAVLAGEFSDIQACSAAWKADGVCSTVAGSRPENVRKNRYKDVLPYDQTRVILSLLQEEGHSDYINGNFIRGVDGSLAYIATQGPLPHTLLDFWRLVWEFGVKVILMACREIENGRKRCERYWAQEQEPLQTGLFCITLIKEKWLNEDIMLRTLKVTFQKESRSVYQLQYMSWPDRGVPSSPDHMLAMVEEARRLQGSGPEPLCVHCSAGCGRTGVLCTVDYVRQLLLTQMIPPDFSLFDVVLKMRKQRPAAVQTEEQYRFLYHTVAQMFCSTLQNASPHYQNIKENCAPLYDDALFLRTPQALLAIPRPPGGVLRSISVPGSPGHAMADTYAVVQKRGAPAGAGSGTQTGTGTGTGARSAEEAPLYSKVTPRAQRPGAHAEDARGTLPGRVPADQSPAGSGAYEDVAGGAQTGGLGFNLRIGRPKGPRDPPAEWTRV

Variants of: B1
Settings: with fbw1a_human BTRC

| Variant | effect of a mutation on the interaction |
| --- | --- |
| S419A | decreasing interaction strength |
| S423A | disrupting interaction strength |
